In one assay the target is T1, CD318 (human, UniProt Q9H5V8 30-836).
T1 construct: whole, on cells
T1 sequence (looked up): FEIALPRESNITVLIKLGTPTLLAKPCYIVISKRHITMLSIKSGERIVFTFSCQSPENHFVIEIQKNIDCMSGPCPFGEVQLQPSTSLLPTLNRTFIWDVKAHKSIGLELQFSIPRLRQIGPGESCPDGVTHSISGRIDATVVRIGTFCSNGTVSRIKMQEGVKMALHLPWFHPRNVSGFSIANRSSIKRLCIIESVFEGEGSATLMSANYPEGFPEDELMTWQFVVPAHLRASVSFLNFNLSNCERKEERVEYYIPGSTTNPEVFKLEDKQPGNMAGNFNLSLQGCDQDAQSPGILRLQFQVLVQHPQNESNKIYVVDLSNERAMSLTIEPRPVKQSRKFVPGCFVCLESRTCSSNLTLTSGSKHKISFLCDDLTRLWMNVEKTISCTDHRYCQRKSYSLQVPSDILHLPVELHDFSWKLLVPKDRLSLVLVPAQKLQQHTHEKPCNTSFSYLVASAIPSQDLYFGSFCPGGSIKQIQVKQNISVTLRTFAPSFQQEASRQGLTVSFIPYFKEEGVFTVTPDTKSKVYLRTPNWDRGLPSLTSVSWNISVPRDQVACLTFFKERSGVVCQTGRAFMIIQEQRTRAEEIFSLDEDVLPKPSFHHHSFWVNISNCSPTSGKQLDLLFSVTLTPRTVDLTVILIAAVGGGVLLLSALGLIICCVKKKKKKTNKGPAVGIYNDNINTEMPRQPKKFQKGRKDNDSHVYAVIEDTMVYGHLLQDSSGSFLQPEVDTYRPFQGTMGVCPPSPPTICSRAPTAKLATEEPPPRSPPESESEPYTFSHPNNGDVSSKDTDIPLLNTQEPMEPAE
Briefly: scFv as binding domain of a CAR on T cells; told in words only, no direct binding assay.

Another assay deals with T2, TSPAN8 (human, UniProt P19075 1-237).
T2 construct: whole, on cells
T2 sequence (looked up): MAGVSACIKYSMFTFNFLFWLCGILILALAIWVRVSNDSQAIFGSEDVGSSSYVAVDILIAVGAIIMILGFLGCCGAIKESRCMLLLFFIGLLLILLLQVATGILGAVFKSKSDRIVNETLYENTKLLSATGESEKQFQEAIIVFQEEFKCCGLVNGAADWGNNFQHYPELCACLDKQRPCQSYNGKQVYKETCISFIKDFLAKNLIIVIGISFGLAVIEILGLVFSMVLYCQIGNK
Described as above.

In assay [1] the target is T3, CD142 (human, UniProt P13726 33-295).
T3 construct: whole, on cells
Described as above.

In assay [2] the target is T3, CD142. As to the kind of experiment: antibody used for staining of human pancreatic cancer cells (flow cytometry, immunohistochemistry; Example 1); told in words only.
For assay [3], the target named is T4, CD73 (human, UniProt P21589 27-549).
T4 construct: whole, on cells
T4 sequence (looked up): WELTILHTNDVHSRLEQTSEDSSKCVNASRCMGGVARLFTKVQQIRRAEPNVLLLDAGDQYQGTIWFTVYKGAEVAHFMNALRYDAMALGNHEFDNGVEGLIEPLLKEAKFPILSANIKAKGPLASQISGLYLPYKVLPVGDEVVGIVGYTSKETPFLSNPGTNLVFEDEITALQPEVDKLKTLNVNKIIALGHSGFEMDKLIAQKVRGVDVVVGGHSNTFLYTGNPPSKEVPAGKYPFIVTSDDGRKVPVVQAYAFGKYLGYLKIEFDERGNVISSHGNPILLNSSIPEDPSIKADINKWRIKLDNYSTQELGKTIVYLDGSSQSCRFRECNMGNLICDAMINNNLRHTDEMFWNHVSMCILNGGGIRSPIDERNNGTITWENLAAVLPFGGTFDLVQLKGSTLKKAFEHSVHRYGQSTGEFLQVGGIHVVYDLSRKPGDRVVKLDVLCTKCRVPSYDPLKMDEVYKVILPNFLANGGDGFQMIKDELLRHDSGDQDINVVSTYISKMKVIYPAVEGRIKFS
Briefly: scFv as binding domain of a CAR on T cells; told in words only, no direct binding assay.

Assay [4] has as its target T4, CD73. As to the kind of experiment: antibody used for staining of human pancreatic cancer cells (flow cytometry, immunohistochemistry; Example 1); told in words only. (A flow cytometer gives signals particle by particle.)
Assay [5] has as its target T5, CD66c (human, UniProt P40199 35-320).
T5 construct: whole, on cells
T5 sequence (looked up): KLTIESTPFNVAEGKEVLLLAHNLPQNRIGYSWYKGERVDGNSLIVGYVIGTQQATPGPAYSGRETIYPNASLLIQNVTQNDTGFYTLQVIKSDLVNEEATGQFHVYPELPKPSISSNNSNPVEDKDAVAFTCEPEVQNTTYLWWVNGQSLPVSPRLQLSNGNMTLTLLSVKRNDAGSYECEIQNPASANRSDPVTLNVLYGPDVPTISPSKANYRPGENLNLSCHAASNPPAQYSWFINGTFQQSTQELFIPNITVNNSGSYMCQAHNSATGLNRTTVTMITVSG
Briefly: scFv as binding domain of a CAR on T cells; told in words only, no direct binding assay.

Assay [6] concerns the target T5, CD66c. As to the kind of experiment: antibody used for staining of human pancreatic cancer cells (flow cytometry, immunohistochemistry; Example 1); told in words only.

B1: CD318 specific CAR sequence VL-linker-VH (scFv)
scFv: DIVMTQSHKFMSTSVGDRVSITCKASQDVSTAVAWYQQKSGQSPKLLIYWASTRHTGVPDRFTGSGSGTDYTLTISSVQAEDLALYYCQQHYSTPYTFGGGTKLEIKGGGGSGGGGSGGGGSEVQLQQSGAELVRPGALVKLSCKASGFNIKDYYIHWVKQRPEQGLEWIGWIDPENGHTIYDPKFQGKASITADTSSNTAYLQLSSLTSEDTAVYYCARLTGTTYAMDYWGQGTSVTVSS
notes: not shown: hinge, transmembrane and signalling domains of the CAR
On to B1, for which the binding result in the assay with CD318 is reported as “binds”.

B2: CD318 specific CAR sequence VH-linker-VL (scFv)
scFv: EVQLQQSGAELVRPGALVKLSCKASGFNIKDYYIHWVKQRPEQGLEWIGWIDPENGHTIYDPKFQGKASITADTSSNTAYLQLSSLTSEDTAVYYCARLTGTTYAMDYWGQGTSVTVSSGGGGSGGGGSGGGGSDIVMTQSHKFMSTSVGDRVSITCKASQDVSTAVAWYQQKSGQSPKLLIYWASTRHTGVPDRFTGSGSGTDYTLTISSVQAEDLALYYCQQHYSTPYTFGGGTKLEIK
notes: as for B1
On to B2, for which the binding result with CD318 is reported as “binds”.

B3: TSPAN8 specific CAR sequence VH-linker-VL (scFv)
scFv: EVKLLESGGGLVQPGGSMRLSCAASGFTFTDFYMNWIRQPAGKAPEWLGFIRNKASGYTTEYNPSVKGRFTISRDNTQNMLYLQMNTLRAEDTATYYCARAHSYYGYDYFDYWGQGVMVTVSSGGGGSGGGGSGGGGSDIQMTQSPASLSASLEEIVTITCQASQDIGNWLSWYQQKPGKSPQLLIYGATSLADGVPSRFSGSRSGTQYSLKISRLQVEDIRIYYCLQAYSAPWTFGGGTKLELK
notes: as for B1
On to B3, for which, in the assay with TSPAN8, the binding result is listed as “binds”.

B4: CD142 specific CAR sequence VH-linker-VL (scFv)
scFv: QVQLKQSGPGLVQPSQSLSITCTVSGFSLSNYGVHWVRQSPGKGLEWLGVIWSGGSTDYNVAFISRLIITKDNSKSQVFLKMNSLQADDTAIYFCARTTGSVFNAMDHWGQGTSVTVSSGGGGSGGGGSGGGGSQIVLTQSPALMSASPGEKVTMTCSASSSVTYMYWYQQKPRSSPKPWIYLTSNLASGVPARFSGSGSGTSYSLTISSVEAEDAATYYCQQWSSNPLTFGAGTKLELK
notes: as for B1
For B4, the binding result in the assay with CD142 [1] is reported as “binds”.

B5: CD142 specific CAR sequence VL-linker-VH (scFv)
scFv: QIVLTQSPALMSASPGEKVTMTCSASSSVTYMYWYQQKPRSSPKPWIYLTSNLASGVPARFSGSGSGTSYSLTISSVEAEDAATYYCQQWSSNPLTFGAGTKLELKGGGGSGGGGSGGGGSQVQLKQSGPGLVQPSQSLSITCTVSGFSLSNYGVHWVRQSPGKGLEWLGVIWSGGSTDYNVAFISRLIITKDNSKSQVFLKMNSLQADDTAIYFCARTTGSVFNAMDHWGQGTSVTVSS
notes: as for B1
Consider B5, for which the binding result in the assay with CD142 [1] is on record as “binds”.

B6: CD142 specific antibody (antibody, V domains shown)
VH: QVQLKQSGPGLVQPSQSLSITCTVSGFSLSNYGVHWVRQSPGKGLEWLGVIWSGGSTDYNVAFISRLIITKDNSKSQVFLKMNSLQADDTAIYFCARTTGSVFNAMDHWGQGTSVTVSS
VL: QIVLTQSPALMSASPGEKVTMTCSASSSVTYMYWYQQKPRSSPKPWIYLTSNLASGVPARFSGSGSGTSYSLTISSVEAEDAATYYCQQWSSNPLTFGAGTKLELK
notes: also called CD142 VH
With B6, in the assay with CD142 [2], the binding result is reported as “binds”.

B7: CD73 specific CAR sequence VL-linker-VH (scFv)
scFv: DIVMTQSHKFMSTSVGDRVSITCKASQDVGSAVAWYQQKPGQSPKLLIYWASTRHTGVPDRFTGSGSGTDFTLTISNVQSEDLADYFCQQYSSYPLTFGAGTKLELKGGGGSGGGGSGGGGSEVQLQQSGAELVKPGASVKLSCTASGFNIKDTYIHWVKQRPEQGLEWIGRIDPATGNTEYDPKFQGKATITADTSSNTAYLHLSSLTSEDTAVYYCARGYYGSSYPPWFAYWGQGTLVTVSA
notes: as for B1
On to B7, for which the binding result with CD73 [3] is “binds”.

B8: CD73 specific antibody (antibody, V domains shown)
VH: EVQLQQSGAELVKPGASVKLSCTASGFNIKDTYIHWVKQRPEQGLEWIGRIDPATGNTEYDPKFQGKATITADTSSNTAYLHLSSLTSEDTAVYYCARGYYGSSYPPWFAYWGQGTLVTVSA
VL: DIVMTQSHKFMSTSVGDRVSITCKASQDVGSAVAWYQQKPGQSPKLLIYWASTRHTGVPDRFTGSGSGTDFTLTISNVQSEDLADYFCQQYSSYPLTFGAGTKLELK
notes: also called CD73 VH
Take B8: the binding result in the assay with CD73 [4] is “binds”.

B9: CD66c specific CAR sequence VH-linker-VL (scFv)
scFv: QVTLKESGPGILKPSQTLSLTCSFSGFSLSTSGMGVGWIRQPSGKSLEWLAHIWWNDERYYNPSLKNQLTISKDTSRNQVFLKITSVDTADTATYYCARSPRGYFDYWGHGTTLTVSSGGGGSGGGGSGGGGSDIVMTQSQKFMSTSVGDRVSVTCKASQNVVTNVAWYQQTPGQSPKALIYSASYRYSGVPDRFSGSGSGTDFTLTISNVQSGDLAEYFCQQYNSYPLTFGAGTKLELK
notes: as for B1
B9: the binding result in the assay with CD66c [5] is recorded as “binds”.

B10: CD66c specific antibody (antibody, V domains shown)
VH: QVTLKESGPGILKPSQTLSLTCSFSGFSLSTSGMGVGWIRQPSGKSLEWLAHIWWNDERYYNPSLKNQLTISKDTSRNQVFLKITSVDTADTATYYCARSPRGYFDYWGHGTTLTVSS
VL: DIVMTQSQKFMSTSVGDRVSVTCKASQNVVTNVAWYQQTPGQSPKALIYSASYRYSGVPDRFSGSGSGTDFTLTISNVQSGDLAEYFCQQYNSYPLTFGAGTKLELK
notes: also called CD66c VH
On to B10, for which the binding result in the assay with CD66c [6] was “binds”.

B11: CD73 specific CAR sequence VH-linker-VL (scFv)
scFv: EVQLQQSGAELVKPGASVKLSCTASGFNIKDTYIHWVKQRPEQGLEWIGRIDPATGNTEYDPKFQGKATITADTSSNTAYLHLSSLTSEDTAVYYCARGYYGSSYPPWFAYWGQGTLVTVSAGGGGSGGGGSGGGGSDIVMTQSHKFMSTSVGDRVSITCKASQDVGSAVAWYQQKPGQSPKLLIYWASTRHTGVPDRFTGSGSGTDFTLTISNVQSEDLADYFCQQYSSYPLTFGAGTKLELK
notes: as for B1
Take B11: the binding result in the assay with CD73 [3] is reported as “binds”.

B12: TSPAN8 specific CAR sequence VL-linker-VH (scFv)
scFv: DIQMTQSPASLSASLEEIVTITCQASQDIGNWLSWYQQKPGKSPQLLIYGATSLADGVPSRFSGSRSGTQYSLKISRLQVEDIRIYYCLQAYSAPWTFGGGTKLELKGGGGSGGGGSGGGGSEVKLLESGGGLVQPGGSMRLSCAASGFTFTDFYMNWIRQPAGKAPEWLGFIRNKASGYTTEYNPSVKGRFTISRDNTQNMLYLQMNTLRAEDTATYYCARAHSYYGYDYFDYWGQGVMVTVSS
notes: as for B1
On to B12, for which, in the assay with TSPAN8, the binding result is recorded as “binds”.

B13: CD66c specific CAR sequence VL-linker-VH (scFv)
scFv: DIVMTQSQKFMSTSVGDRVSVTCKASQNVVTNVAWYQQTPGQSPKALIYSASYRYSGVPDRFSGSGSGTDFTLTISNVQSGDLAEYFCQQYNSYPLTFGAGTKLELKGGGGSGGGGSGGGGSQVTLKESGPGILKPSQTLSLTCSFSGFSLSTSGMGVGWIRQPSGKSLEWLAHIWWNDERYYNPSLKNQLTISKDTSRNQVFLKITSVDTADTATYYCARSPRGYFDYWGHGTTLTVSS
notes: as for B1
Regarding B13, the binding result with CD66c [5] is reported as “binds”.

The record behind these values is patent publication US20200282035A1 (MILTENYI BIOTEC B V, published 2020).
